From publication PMC2835748

Test system: GST-PTB (polypyrimidine tract binding protein)
Assay: EMSA
Conditions: EMSA: 85 nM RNA, 50 mM HEPES pH 7.6, 25 mM KCl, 2.5 mM MgCl2, 1 mM DTT, 4% glycerol, 0.67 ug/ul yeast tRNA, 10 min at 30 C; 4% native gel with 5% glycerol

Substance: FCV gRNA 1-245
- binding signal (relative affinity (reference)): 1

Substance: FCV gRNA 1-202 WT
- binding signal (relative to 1-245): 1
